First the molecules themselves.
B1: 6xHis-BRAF kinase domain, wild type (amino acids 442-723 with 16 solubilizing mutations) (domain or fragment, UniProt P15056 442-723, looked up)
chain: GRRDSSDDWEIPDGQITVGQRIGSGSFGTVYKGKWHGDVAVKMLNVTAPTPQQLQAFKNEVGVLRKTRHVNILLFMGYSTKPQLAIVTQWCEGSSLYHHLHASETKFEMKKLIDIARQTARGMDYLHAKSIIHRDLKSNNIFLHEDNTVKIGDFGLATVKSRWSGSHQFEQLSGSILWMAPEVIRMQDSNPYSFQSDVYAFGIVLYELMTGQLPYSNINNRDQIIEMVGRGSLSPDLSKVRSNCPKRMKRLMAECLKKKRDERPSFPRILAEIEELARELSG
modifications: biotin (Sulfo-NHS-biotin, 50 molar excess) in the pull-downs on streptavidin beads
notes: BRAF kinase domain, amino acids 442-723, with 16 solubilizing mutations; Designed as in Cope et al., 2020; Amine-coupled to a carboxyl sensor in OpenSPR, biotinylated in pull-downs; also called KD; BRAF-KD; source: E. coli BL21 codon +, purified (cobalt resin, SEC); not shown: 6xHis, N-terminal, kept

Common to all, as to assay: SPR; OpenSPR; BRAF-KD WT or D594G amine-coupled to a carboxyl sensor (~6000 RUs), BRAF NTs flowed at 30 µL/min; 20 mM HEPES pH 7.4, 150 mM NaCl, 5% glycerol, 0.005% Tween-20, 1% BSA; 1:1 fit
What all share (details): both partners purified

Assay [1] has as its target T1, His/MBP-BRAF NT1 (aa 1-288) (UniProt P15056 1-288).
T1 construct: BRAF residues 1-288 (BSR, RBD and CRD); Cloned in the pET28-MBP vector; also called His/MBP-NT1; source: E. coli BL21 codon +, purified (Ni-NTA, SEC); not shown: 6xHis, N-terminal, kept; MBP, N-terminal, kept

The target in assay [2] is T2, untagged BRAF NT1 (His/MBP-tag removed by TEV protease) (UniProt P15056 1-288).
T2 construct: BRAF residues 1-288 (BSR, RBD and CRD); also called untagged NT1; source: E. coli BL21 codon +, purified, tag cleaved with TEV protease; not shown: 6xHis, N-terminal, cleaved; MBP, N-terminal, cleaved

Assay [3] addresses B1.

Kd data for two molecules are collected here from publication PMC10752582 (eLife, 2023).

Regarding B1, the Kd was found to be 11 nM in assay [1] and 13 nM in assay [2].

B2: BRAF-CRD only protein NT5 (residues 234-288) (domain or fragment, UniProt P15056 234-288, looked up)
chain: THNFVRKTFFTLAFCDFCRKLLFQGFRCQTCGYKFHQRCSTEVPLMCVNYDQLDL
notes: BRAF residues 234-288 (CRD only); also called BRAF NT5; source: E. coli BL21 codon +, purified
Regarding B2, the dissociation constant Kd in assay [3] is > 6000 nM.
